We go through 6 molecules from patent US20250296984A1, “THERAPEUTIC AND DIAGNOSTIC AGENTS AND USES THEREOF” (priority 2022, published 2025).

Residue numbers refer to the chain shown, from its start. Several values for one entry are separate records, joined by “and”; a condition that tells them apart may be missing. Identical values can stand only once.

Test [1] addresses Bio-Peptide-2 (human cytomegalovirus (4D variant)). Briefly: ELISA (FIG. 5).
The target is the same in test [2]. As to the kind of experiment: ELISA, Bio-Peptide-2 coated.
The target in test [3] is Peptide-N-BSA (human cytomegalovirus). As to the kind of experiment: ELISA, Peptide-N-BSA coated.
Test [4] has as its target Peptide 3 (human cytomegalovirus). As to the kind of experiment: HuProt array, 0.1 µg/ml.

B1: US28-13-5G6-1D3 (antibody)
heavy: EVKLVESGGGLVQPGGSLRLACATSGFTFTDYYMSWVRQPPGKALEWLGFIRSKANGYTTEYSASVKGRFTISRDNSQSILYLQMNTLRSEDSATYYCARDERRTAWLAYWGQGTLVTVSAAKTTPPSVYPLAPGSAAQTNSMVTLGCLVKGYFPEPVTVTWNSGSLSSGVHTFPAVLQSDLYTLSSSVTVPSSTWPSETVTCNVAHPASSTKVDKKIVPRDCGCKPCICTVPEVSSVFIFPPKPKDVLTITLTPKVTCVVVDISKDDPEVQFSWFVDDVEVHTAQTQPREEQFNSTFRSVSELPIMHQDWLNGKEFKCRVNSAAFPAPIEKTISKTKGRPKAPQVYTIPPPKEQMAKDKVSLTCMITDFFPEDITVEWQWNGQPAENYKNTQPIMDTDGSYFIYSKLNVQKSNWEAGNTFTCSVLHEGLHNHHTEKSLSHSPGK
light: DVLMTQTPLSLPVSLGDQASISCRSSQSIVHSNGNTYLDWYLQKPGQSPKLLIYKVSNRFSGVPDRFSGSGSGTDFTLKISRVEAEDLGVYYCFQGSHVPTWTFGGGTKLEIKRADAAPTVSIFPPSSEQLTSGGASVVCFLNNFYPKDINVKWKIDGSERQNGVLNSWTDQDSKDSTYSMSSTLTLTKDEYERHNSYTCEATHKTSTSPIVKSFNRNEC
In the case of B1, in test [1], the fold binding over BSA control is 27 fold and 28 fold.

B2: US28-14-4E4-1E8 (antibody, mouse IgG1, kappa)
heavy: not shown
light: QIVLSQSPTIMSASPGEKVTMTCSASSSVSYMHWYQQKSGTSPKRWIYDSSKLASGVPARFSGSGSGTSYSLTISSMEAEDAATYYCQQWTSNPPITFGAGTKLELKRADAAPTVSIFPPSSEQLTSGGASVVCFLNNFYPKDINVKWKIDGSERQNGVLNSWTDQDSKDSTYSMSSTLTLTKDEYERHNSYTCEATHKTSTSPIVKSFNRNEC
Molecule B2 displayed an absorbance in test [2] of 2.87.

B3: US28-13-1C10-1C10 (antibody, mouse IgG1, kappa)
heavy: EVKLVESGGVLVKPGGSLKFSCAASGFTFSSHALSWVRQTPEKRLEWVASISSRGRTYYPDSVKGRFTVSRDNARNILYLQVSSLRSEDTAMYYCTRGGTHYSYGNGFDFWGQGTTLTVSSAKTTPPSVYPLAPGSAAQTNSMVTLGCLVKGYFPEPVTVTWNSGSLSSGVHTFPAVLQSDLYTLSSSVTVPSSTWPSETVTCNVAHPASSTKVDKKIVPRDCGCKPCICTVPEVSSVFIFPPKPKDVLTITLTPKVTCVVVDISKDDPEVQFSWFVDDVEVHTAQTQPREEQFNSTFRSVSELPIMHQDWLNGKEFKCRVNSAAFPAPIEKTISKTKGRPKAPQVYTIPPPKEQMAKDKVSLTCMITDFFPEDITVEWQWNGQPAENYKNTQPIMDTDGSYFIYSKLNVQKSNWEAGNTFTCSVLHEGLHNHHTEKSLSHSPGK
light: B2 light with S5T, T9A, A25V, S50T, S76T, T91S, S92N
B3 gave an absorbance in test [2] of 3.03.

B4: US28-13-1H3-1A10 (antibody, mouse IgG1, kappa)
heavy: B3 heavy with F29L
light: B2 light with S5T, T9A, A25V, S50T, S76T, T91S, S92N
In the case of B4, the absorbance in test [2] is 2.84.

B5: US28-13-1C10-1G9 (antibody, mouse IgG1, kappa)
heavy: not shown
light: B2 light with S5T, T9A, S50T, T91S, I96L
Turning to B5, the absorbance in test [2] worked out at 3.06.

B6: US28-4-7B1F3 (antibody, mouse IgG1, kappa)
heavy: EVQLQQSGAELAKPGASVKMSCKASGYTFTNYWMHWVKQRPGQGLEWIGYVNPRTGYTEYNQKFKDKATLTADKSSRTAYMQLSSLTSEDSAVYSCARILNGTGFAYWGQGTLVTVSAAKTTPPSVYPLAPGSAAQTNSMVTLGCLVKGYFPEPVTVTWNSGSLSSGVHTFPAVLQSDLYTLSSSVTVPSSTWPSETVTCNVAHPASSTKVDKKIVPRDCGCKPCICTVPEVSSVFIFPPKPKDVLTITLTPKVTCVVVDISKDDPEVQFSWFVDDVEVHTAQTQPREEQFNSTFRSVSELPIMHQDWLNGKEFKCRVNSAAFPAPIEKTISKTKGRPKAPQVYTIPPPKEQMAKDKVSLTCMITDFFPEDITVEWQWNGQPAENYKNTQPIMDTDGSYFIYSKLNVQKSNWEAGNTFTCSVLHEGLHNHHTEKSLSHSPGK
light: DIVLTQSPSSLTVSVGEKFTMSCKSSQSLLYSSNQKNYLAWYQQKPGQSPKLLIYWASTRESGVPDRFTGSGSGTDFTLAISSVKPEDLAIYYCQQYYSFPLTFGAGTKLEIKRADAAPTVSIFPPSSEQLTSGGASVVCFLNNFYPKDINVKWKIDGSERQNGVLNSWTDQDSKDSTYSMSSTLTLTKDEYERHNSYTCEATHKTSTSPIVKSFNRNEC
The molecule B6 returned an absorbance in test [3] of 2.8. In test [4], this molecule had an F635 of 50000 AU, a S Score of 116 and a Z Score of 145.
